In patent publication US20130209454A1 (CALIFORNIA INSTITUTE OF TECHNOLOGY, published 2013):

Columns and labels:
Experiment in all cases: cell-based or functional assay
[1] = target: HIV-1 strain CNE58 envelope (gp120) (HIV-1)
[2] = target: HIV-1 strain RHPA4259.7 envelope (gp120) (HIV-1)
[3] = target: HIV-1 strain WITO4160.33 envelope (gp120) (HIV-1)
[4] = target: HIV-1 strain ZM214M.PL15 envelope (gp120) (HIV-1)
[5] = target: HIV-1 strain 231965.c01 envelope (gp120) (HIV-1)
[6] = target: HIV-1 strain 3817.v2.c59 envelope (gp120) (HIV-1)
[7] = target: HIV-1 strain X1193_c1 envelope (gp120) (HIV-1)
[8] = target: HIV-1 strain 231966.c02 envelope (gp120) (HIV-1)
[9] = target: HIV-1 strain 6480.v4.c25 envelope (gp120) (HIV-1)
[10] = target: HIV-1 strain Q259.d2.17 envelope (gp120) (HIV-1)
[11] = target: HIV-1 strain Ce2010_F5 envelope (gp120) (HIV-1)
[12] = target: HIV-1 strain 703357.C02 envelope (gp120) (HIV-1)
[13] = target: HIV-1 strain WEAU_d15_410_787 envelope (gp120) (HIV-1)
[14] = target: HIV-1 strain 620345.c01 envelope (gp120) (HIV-1)
[15] = target: HIV-1 strain P0402_c2_11 envelope (gp120) (HIV-1)
[16] = target: HIV-1 strain Du422.1 envelope (gp120) (HIV-1)
[17] = target: HIV-1 strain ZM249M.PL1 envelope (gp120) (HIV-1)
[18] = target: HIV-1 strain Q23.17 envelope (gp120) (HIV-1)
[19] = target: HIV-1 strain ZM247v1(Rev-) envelope (gp120) (HIV-1)
[20] = target: HIV-1 strain ZM53M.PB12 envelope (gp120) (HIV-1)
[21] = target: HIV-1 strain 6811.v7.c18 envelope (gp120) (HIV-1)
[22] = target: HIV-1 strain THRO4156.18 envelope (gp120) (HIV-1)
[23] = target: HIV-1 strain TRO.11 envelope (gp120) (HIV-1)
[24] = target: HIV-1 strain 0330.v4.c3 envelope (gp120) (HIV-1)
[25] = target: HIV-1 strain REJO4541.67 envelope (gp120) (HIV-1)
[26] = target: HIV-1 strain CNE30 envelope (gp120) (HIV-1)
[27] = target: HIV-1 strain T257-31 envelope (gp120) (HIV-1)
[28] = target: HIV-1 strain SC422661.8 envelope (gp120) (HIV-1)
[29] = target: HIV-1 strain 0815.v3.c3 envelope (gp120) (HIV-1)
[30] = target: HIV-1 strain R2184.04 envelope (gp120) (HIV-1)
[31] = target: HIV-1 strain 89-F1_2_25 envelope (gp120) (HIV-1)
[32] = target: HIV-1 strain P1981_C5_3 envelope (gp120) (HIV-1)
[33] = target: HIV-1 strain Du156.12 envelope (gp120) (HIV-1)
[34] = target: HIV-1 strain CAP210.2.00.E8 envelope (gp120) (HIV-1)
[35] = target: HIV-1 strain ZM197M.PB7 envelope (gp120) (HIV-1)
[36] = target: HIV-1 strain R1166.c01 envelope (gp120) (HIV-1)
[37] = target: HIV-1 strain AC10.0.29 envelope (gp120) (HIV-1)
[38] = target: HIV-1 strain TRJO4551.58 envelope (gp120) (HIV-1)
[39] = target: HIV-1 strain 211-9 envelope (gp120) (HIV-1)
[40] = target: HIV-1 strain 3016.v5.c45 envelope (gp120) (HIV-1)
[41] = target: HIV-1 strain ZM233M.PB6 envelope (gp120) (HIV-1)

B1: NIH45-46 IgG (antibody, V domains shown)
VH: QVRLSQSGGQMKKPGESMRLSCRASGYEFLNCPINWIRLAPGRRPEWMGWLKPRGGAVNYARKFQGRVTMTRDVYSDTAFLELRSLTSDDTAVYFCTRGKYCTARDYYNWDFEHWGRGAPVTVSS
VL: EIVLTQSPATLSLSPGETAIISCRTSQSGSLAWYQQRPGQAPRLVIYSGSTRAAGIPDRFSGSRWGADYNLSISNLESGDFGVYYCQQYEFFGQGTKVQVDI
- neutralization IC80 [1]: 2.08 µg/mL
- neutralization IC80 [2]: 0.047 µg/mL
- neutralization IC80 [3]: 0.26 µg/mL
- neutralization IC80 [4]: 0.59 µg/mL
- neutralization IC80 [5]: 0.126 µg/mL
- neutralization IC80 [6]: > 50 µg/mL
- neutralization IC80 [7]: 0.064 µg/mL
- neutralization IC80 [8]: 9.64 µg/mL
- neutralization IC80 [9]: 0.1 µg/mL
- neutralization IC80 [10]: 0.154 µg/mL
- neutralization IC80 [11]: 0.357 µg/mL
- neutralization IC80 [12]: > 50 µg/mL
- neutralization IC80 [13]: 0.015 µg/mL
- neutralization IC80 [14]: > 50 µg/mL
- neutralization IC80 [15]: 0.214 µg/mL
- neutralization IC80 [16]: > 50 µg/mL
- neutralization IC80 [17]: 0.053 µg/mL
- neutralization IC80 [18]: 0.5 µg/mL
- neutralization IC80 [19]: 24.5 µg/mL
- neutralization IC80 [20]: 0.61 µg/mL
- neutralization IC80 [21]: 0.113 µg/mL
- neutralization IC80 [22]: 8.22 µg/mL
- neutralization IC80 [23]: 7.49 µg/mL
- neutralization IC80 [24]: 0.3 µg/mL
- neutralization IC80 [25]: 0.035 µg/mL
- neutralization IC80 [26]: 1.07 µg/mL
- neutralization IC80 [27]: 1.38 µg/mL
- neutralization IC80 [28]: 0.13 µg/mL
- neutralization IC80 [29]: 0.052 µg/mL
- neutralization IC80 [30]: 0.127 µg/mL
- neutralization IC80 [31]: > 50 µg/mL
- neutralization IC80 [32]: 0.24 µg/mL
- neutralization IC80 [33]: 0.054 µg/mL
- neutralization IC80 [34]: > 50 µg/mL
- neutralization IC80 [35]: 0.55 µg/mL
- neutralization IC80 [36]: 1.21 µg/mL
- neutralization IC80 [37]: 1.93 µg/mL
- neutralization IC80 [38]: 0.13 µg/mL
- neutralization IC80 [39]: > 50 µg/mL
- neutralization IC80 [40]: > 50 µg/mL
- neutralization IC80 [41]: 14.2 µg/mL
